{
  "source": "the DeepSol protein solubility set",
  "data": [
    {"assay": "soluble on expression in E. coli; label from the status in PepcDB or PDB records", "values": [
      {"sequence": "MSLKNENKMIIYQVFTRLFGNNNNHCIYNGDISQNGCGKMADFTAKALGEIKKLGATHIWYTGIIEHASQTDYRRYNIRPDHPAIVKGKAGSPYAIKDYYDVDPDLATDVPGRMKEFENLVSRTHRAGLKVIIDFVPNHVARQYHSDAQPDGTTQLGANDDPNYSFSPYNNFYYIPQSELHGQFDMTGNALEPYHEFPAKATGNNRFDAYPNINDWYETVKLNYGVDYQNGGTCHFSPTPDTWTKMLDILLFWSSKNIDGFRCDMAEMVPVEFWEWAIPQVKQEYPNIIFIAEVYNPHEYKNYLFRGKFDFLYDKVGLYDTLRNVACGYDSATAITRSWQSLGGIEKRMLNFLENHDEQRIASDFFAGDPRKGVPALIVSACMNTNPMMIYFGQEFGEMGMDSEGFSGRDGRTTIFDYWSVDTIRRWRNEGKFDGKMLTEEQKHLYAIYQRVLTLCNEEQAISNGVFFDLMYANENGWRFNEHKQYTFMRKYKNELLFIVVNFDNQPVNVAINVPSHAFDFLQIPQFDSYKAVDLLTDKVEEISLLPYKATEIALGAYTGKILKIKEGHHHHHH", "soluble on expression in E. coli": "soluble"},
      {"sequence": "MSLKNFINFHILISHSPSCLNRDDMNMQKSAVFGGERRVRVSSQSLKRAIRKSDYYRQHLGEASVRTKKLDELIAIINDRLAGRYDTDLLKKTVGLLAGKELSVEVATEGDAVAPWAIEEVAWFCEQVKRMVAQGQDEKALGKLLKNETAAMRQALASGVDIALSGRMATSGLMSELGKVDGALAVAHVLTTHSVDADIDWFTAVDDLQELGSGHLDTQEFSSGVFYRYASLNVKQLQENLGNAPREKALEIGAHLLHMLATIVPSAKQQSFAAHNLADLALVSFSDIPVSLANAFEKPVRSVNGSGFKEPSIAELHNYWQQIHTGYGLSERCGEFILGQSSVPEGITRKSTIEELKTWVMNNGEGEGHHHHHH", "soluble on expression in E. coli": "soluble"},
      {"sequence": "MSLKNIKSNLGDYATLVFDCDGVLLDSNKVKTQAFYEAALPYGEMAAQALADHHVANGGISRYKKFSYFLEHIVAQHAEGPSLEHLLDRYAENVSSGLLSCDIASGIRELRAKTPNTRWLIVSGGDQTELREVFAQRKLAEIFDGGIFGSPDAKEEIIARELRSSNIAPPALFIGDSKYDFKAASESNLDFLFLSDWSEVKNWQQWCNENNIYALGNISSLLETCTHPEEGHHHHHH", "soluble on expression in E. coli": "soluble"},
      {"sequence": "MSLKNLHPIMLAGTGSDVGKSVIAAALCRIFKQDGYRPAPFKAQNMALNSYATPEGLEIGRAQAVQAEAAGVPCHTDMNPLLLKPSSDHTSQVVLNGRPIGNRNAFEYFRKEGREELRQEVNAAFDRLAARYNPIVMEGAGSISEINLRDTDLVNMPMACYADADVILVADIDRGGVFASVYGSVMLQTPEDKKRIKGVIINKFRGDIRLFESGVKMMEDLCGIPVLGIIPYYRNIHIEEEDSVGLDYKRMQAVEGKINIAVVLLRHLSNFTDFNRLERDERVHLYYTNNTEDLAKADIILLPGSKSTLDDLYELRRNGVAQAVLRAHREGVTVMGICGGYQLMGLEIHDPEGVEGEIRQLPGLGLLPVITTMQGEKVTRQVNFHFLENAETCQGYEIHMGETRPVPGEAVVPLNKLEDGGEDGCFVNQKCMGSYIHGILDNQAFIDYLLEPYAEKLECHTVLDYRTYKEEQYDKLAEHVRSHLNLPLLYQIMSGNEGHHHHHH", "soluble on expression in E. coli": "soluble"},
      {"sequence": "MSLKNSMTILDAIRALDDPTRLRIMRLLASMELAVGEVAQVLGQSQPRVSRHIKILCDSGLAERRKEGAWVFLRSSIGEGAESPLASALARLLAVAEHEDTAFGRRCSEDRQHLDAIRSSRESHALEWFARHADEWDELRSLHIADGPVEAALTEMLLALSGDGSLGRLLDVGTGTGRIAELFAPNAAHVVAFDKSPDMLRIARARLQHLPADAVELVQGDFAQLPFAARSFDTVLFHQVLHYAQAPEAVLAGAARVTAPGGRVAIVDFAAHEREDLRQTHAHARLGFSDAQIETMLLDAGFIPHETRALAGHELVVKLWTAVRREDSVTQLEPRQKSSSGKTEGHHHHHH", "soluble on expression in E. coli": "soluble"},
      {"sequence": "MSLKQKLSHPYLAKHISAPKIDEDKLLLFHALFEEADIKNNDRENYIVTAMLVQSALDTHDEVTTARVIKRDENKNRQLTVLAGDYFSGLYYSLLSEMKDIYMIRTLATAIKEINEHKIRLYDRSFKDENDFFESVGIVESALFHRVAEHFNLPRWKKLSSDFFVFKRLMNGNDAFLDVIGSFIQLGKTKEEILEDCFKKAKNSIESLLPLNSPIQNILINRLKTISQDQTYHQKEGHHHHHH", "soluble on expression in E. coli": "not soluble"},
      {"sequence": "MSLKRIVVANDLVGVGKVALSASIPLMASCLLEQVLLPTCLLSSHTGGGQNPVKHTTSSILDVFLTDWDNKRIKFDGIFIGYFTTTRDGQKLLEWLSRKQLPLILDPIMADNGKLYQGFSQKHIEIMIKLTQKAELVLPNISEACLLTQTAYLAKNYDEEDIRQVARKLAKLGPKQVVISGISFEEGSIGFAYYQSDSDQLTFHFGKQFPYHFYGTGDIASAIITAGFYYQLPLTQILDLVVSFLEKVLQNTLTLKRDLILGVAYESHLNYLTEGHHHHHH", "soluble on expression in E. coli": "not soluble"},
      {"sequence": "MSLKRLNCRRKGIRVRILAIDTSNQTLSIAVCENQKILGSYTATVKRNHSLTLMPAIDYLMSQLNLAPTAIDRFVVAEGPGSYTGLRLGVTTAKTLAYTLKKELVGISSLQTLAANCVGQTGLIVPLFDARRKNVYAGAYRFVNGVWQNELPDQHISLRELLEQLKNEPNLFFVGEDVEKFTEEIAQIIPHGEICDVPQWQIPNAAVLAALGSVAEPVENVHGFLPAYLKKVEAEENWLKTHTPNGESYVEKLEGHHHHHH", "soluble on expression in E. coli": "soluble"},
      {"sequence": "MSLKRVIGYIRVSTDNQDLERQRVLIRKYCENKGYSLLRIEEDYAISGTVSNRNGLNSILNITNSVADMVVVSELSRLSRQDDIFETLTQIHTIIRNVDLVILDEPDKVYEAGKTIILSDFLMLAIKAYGAADERKKIVSRMTTGKDSKVQAFPLMLTDSNIPTGFKAVPNPNYIKGATPKMLLVEDEERMQLVRDIFNYVANGLSLGKTAEKLNMLGYRTARNKPFYEQSIRTIINDSIYNGVRYWKGMKLELPVKFISDEIWNLAHKKVQENKNYSGEGHHHHHH", "soluble on expression in E. coli": "soluble"},
      {"sequence": "MSLKSDEVFAKIAKRLESIDPANRQVEHVYKFRITQGGKVVKNWVMDLKNVKLVESDDAAEATLTMEDDIMFAIGTGALPAKEAMAQDKMEVDGQVELIFLLEPFIASLK", "soluble on expression in E. coli": "soluble"},
      {"sequence": "MSLKSKGIKNLLIDLGGVLINLDRERCIENFKKIGFQNIEEKFCTHQLDGIFLQQEKGLITPAEFRDGIREMMGKMVSDKQIDAAWNSFLVDIPTYKLDLLLKLREKYVVYLLSNTNDIHWKWVCKNAFPYRTFKVEDYFEKTYLSYEMKMAKPEPEIFKAVTEDAGIDPKETFFIDDSEINCKVAQELGISTYTPKAGEDWSHLFRKEGHHHHHH", "soluble on expression in E. coli": "soluble"},
      {"sequence": "MSLKSKPVFRLVVAATGLCALPTWADGWPSWSPETAVVPYYFVSDSMGNTLGVAGLAKHVGQANASVLGTALYSDKGSYVTYLSATNYQVGDFWLLGAESYQGKFVDYDYYLGANASNDSTAADRTIATGKESITRFSFRYIVPWGHAAFRGARAALEPTRQIKGFSPDRSGITTIEFQPFHTSREINAIAGQDSDSSGLSLKLDWDNRNDVRNPTQGFRTRLDITYADENWGNDSDWLKYEYSSSGFWNLGGVDDLLDQQVFAFNFYIADTPTWNNCNTQTCQRPPEFDQVSLGGLYRLRSFSSGRFHGKSAINYSAEYRVLPKWQPLDDIPVLNIYDIPWWQWVAFVDMGRVSDESSFSELHSDMQWSAGGAVRFQVEGIVVRAEMAWGSEESLFRVMVNQEGHHHHHH", "soluble on expression in E. coli": "not soluble"},
      {"sequence": "MSLKSLEGSWCLVLGASSGIGRAIALGLAREGVHVAGVHFDTAARAEEVEALVEEIRSLGVEARFFNTNAASKATRAELVPQLAELTGANGGIRILVHSLAFGTLVPFTPREGWDRPISVRQLEMTLDVMAHSLVYWTQDLLAAGLLRSGSKVYAMTSAGTSQHLPSYGAVSAAKSALESHVRQLAAELATSGIAVNALRAGTTVTPALQRIPEHAGYIERAAENNPHGRLTRPDDVADAVALLSRTESSWLTGNTIGIDGGELHEGHHHHHH", "soluble on expression in E. coli": "soluble"}
    ]}
  ]
}
